Laboratory results published in patent publication EP4509523A1 (Deutsches Primatenzentrum GmbH (DPZ), dated 2025).

Biological target: T1, D2-KIR3DL2-IgG1-Fc (human, UniProt P43630 220-316, limits assumed)
T1 construct: domain: D2; also called D2 domain of KIR3DL2 as IgG1-Fc protein
Assay: flow cytometry on HEK-293 cells expressing FLAG-KIR3DX1rep, anti-IgG-Fc detection (Fig. 4C)

T1 sequence (P43630 other isoform, or with tags, fused parts or gaps limits assumed): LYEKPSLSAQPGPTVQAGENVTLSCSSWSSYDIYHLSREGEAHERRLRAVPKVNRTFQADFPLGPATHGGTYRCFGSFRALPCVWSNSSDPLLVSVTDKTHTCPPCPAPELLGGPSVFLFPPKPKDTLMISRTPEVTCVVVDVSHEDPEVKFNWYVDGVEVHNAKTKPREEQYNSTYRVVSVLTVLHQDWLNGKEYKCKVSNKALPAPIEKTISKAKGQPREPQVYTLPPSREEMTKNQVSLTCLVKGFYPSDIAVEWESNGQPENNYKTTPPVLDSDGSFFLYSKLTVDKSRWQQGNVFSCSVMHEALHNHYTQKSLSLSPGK

B1: FLAG-KIR3DX1rep (receptor)
chain: QKICPHAGAQDKFSLSAWPSPVVPLGGRVTLSCHSHLRFVIWTIFQTTGTRSHELHTGLSNNITISPVTPEHAGTYRCVGIYKHASKWSAESNSLKIIVTGLFTKPSISAHPSSLVHAGARVSLRCHSELAFDEFILYKEGHIQHSQQLDQGMEAGIHYVEAVFSMGPVTPAHAGAYRCCGCFSHSRYEWSAPSDPLDIVITGKYKKPSLSTQVDPMMRLGEKLTLFCSSEISFDQYHLFRHGVAHGQWLSGGQRHREAFQANFSVGRATPVPGGTYRCYGSFNDSPYEWSAPSDPLQLYTTGNTKSTPLSFTESTPESDTPRPQGQSSNLHMLTGLSVAIISIGVCLSAFIGFWCYIKYHTTMANTEPTEGQRTDEEEPAAEETQEIIYAQLNHQALSQTGFPPASQCPHYLSEDPSIYITVHQAQAEARAAPSLWHKGHPR
notes: also called FLAG-tagged full-length KIR3DX1-repaired; full-length KIR3DX1 in its repaired form as cell surface receptor
B1: no binding.
